{"source": "patent US20160222132A1", "about": "(IGM BIOSCIENES, published 2016)", "binders": {"B1": {"name": "Rtx2a (µ chain of chimeric Rituxan (anti-CD20) Vh fused with CM1 to CM4 of human µ chain with C291S, T350Y, T354E and I397E mutations and tail piece deletion) … (antibody)", "heavy": "QVQLQQPGAELVKPGASVKMSCKASGYTFTSYNMHWVKQTPGRGLEWIGAIYPGNGDTSYNQKFKGKATLTADKSSSTAYMQLSSLTSEDSAVYYCARSTYYGGDWYFNVWGAGTTVTVSSGSASAPTLFPLVSCENSPSDTSSVAVGCLAQDFLPDSITFSWKYKNNSDISSTRGFPSVLRGGKYAATSQVLLPSKDVMQGTDEHVVCKVQHPNGNKEKNVPLPVIAELPPKVSVFVPPRDGFFGNPRKSKLICQATGFSPRQIQVSWLREGKQVGSGVTTDQVQAEAKESGPTTYKVTSTLTIKESDWLSQSMFTCRVDHRGLTFQQNASSMCVPDQDTAIRVFAIPPSFASIFLTKSTKLTCLVTDLTTYDSVTISWTRQNGEAVKTHTNISESHPNATFSAVGEASISEDDWNSGERFTCTVTHTDLPSPLKQTISRPKGVALHRPDVYLLPPAREQLNLRESATIYCLVEGFSPADVFVQWMQRGQPLSPEKYVTSAPMPEPQAPGRYFAHSELTVSEEEWNTGETYTCVVAHEALPNRVTERTVDKSTGK", "light": "QIVLSQSPAILSASPGEKVTMTCRASSSVSYIHWFQQKPGSSPKPWIYATSNLASGVPVRFSGSGSGTSYSLTISRVEAEDAATYYCQQWTSNPPTFGGGTKLEIKRTVAAPSVFIFPPSDEQLKSGTASVVCLLNNFYPREAKVQWKVDNALQSGNSQESVTEQDSKDSTYSLSSTLTLSKADYEKHKVYACEVTHQGLSSPVTKSFNRGEC", "notes": "One HL half pairs with the partner µ chain"}, "B2": {"name": "Rtx2b (µ chain of chimeric Rituxan (anti-CD20) Vh fused with CM1 to CM4 of human mu chain with C291S, L352S, T354K, H395V and I397K mutations and tail piece … (antibody)", "heavy": "QVQLQQPGAELVKPGASVKMSCKASGYTFTSYNMHWVKQTPGRGLEWIGAIYPGNGDTSYNQKFKGKATLTADKSSSTAYMQLSSLTSEDSAVYYCARSTYYGGDWYFNVWGAGTTVTVSSGSASAPTLFPLVSCENSPSDTSSVAVGCLAQDFLPDSITFSWKYKNNSDISSTRGFPSVLRGGKYAATSQVLLPSKDVMQGTDEHVVCKVQHPNGNKEKNVPLPVIAELPPKVSVFVPPRDGFFGNPRKSKLICQATGFSPRQIQVSWLREGKQVGSGVTTDQVQAEAKESGPTTYKVTSTLTIKESDWLSQSMFTCRVDHRGLTFQQNASSMCVPDQDTAIRVFAIPPSFASIFLTKSTKLTCLVTDLTTYDSVTISWTRQNGEAVKTHTNISESHPNATFSAVGEASISEDDWNSGERFTCTVTHTDLPSPLKQTISRPKGVALHRPDVYLLPPAREQLNLRESATITCSVKGFSPADVFVQWMQRGQPLSPEKYVTSAPMPEPQAPGRYFAVSKLTVSEEEWNTGETYTCVVAHEALPNRVTERTVDKSTGK", "light": "QIVLSQSPAILSASPGEKVTMTCRASSSVSYIHWFQQKPGSSPKPWIYATSNLASGVPVRFSGSGSGTSYSLTISRVEAEDAATYYCQQWTSNPPTFGGGTKLEIKRTVAAPSVFIFPPSDEQLKSGTASVVCLLNNFYPREAKVQWKVDNALQSGNSQESVTEQDSKDSTYSLSSTLTLSKADYEKHKVYACEVTHQGLSSPVTKSFNRGEC", "notes": "as for B1"}, "B3": {"name": "Fc chain (human IgM µ chain CM2 to CM4, cMyc tag, tail piece replaced by 6His tag, C291S) (other)", "chain": "GSGSKVSVFVPPRDGFFGNPRKSKLICQATGFSPRQIQVSWLREGKQVGSGVTTDQVQAEAKESGPTTYKVTSTLTIKESDWLSQSMFTCRVDHRGLTFQQNASSMCVPDQDTAIRVFAIPPSFASIFLTKSTKLTCLVTDLTTYDSVTISWTRQNGEAVKTHTNISESHPNATFSAVGEASISEDDWNSGERFTCTVTHTDLPSPLKQTISRPKGVALHRPDVYLLPPAREQLNLRESATITCLVTGFSPADVFVQWMQRGQPLSPEKYVTSAPMPEPQAPGRYFAHSILTVSEEEWNTGETYTCVVAHEALPNRVTERTVDKSTGKGGGSEQKLISEEDLNSAVDHHHHHH", "notes": "Native CM4 interface; also called wild-type Fc"}}, "key": {"[1]": {"target": "T1, Fc2b (human µ chain CH2 to CH4 with C291S, L352S, T354K, H395V and I397K mutations and tail piece deletion) (human, UniProt P01871 112-433)", "T1 construct": "also called Pc2b", "T1 chain": "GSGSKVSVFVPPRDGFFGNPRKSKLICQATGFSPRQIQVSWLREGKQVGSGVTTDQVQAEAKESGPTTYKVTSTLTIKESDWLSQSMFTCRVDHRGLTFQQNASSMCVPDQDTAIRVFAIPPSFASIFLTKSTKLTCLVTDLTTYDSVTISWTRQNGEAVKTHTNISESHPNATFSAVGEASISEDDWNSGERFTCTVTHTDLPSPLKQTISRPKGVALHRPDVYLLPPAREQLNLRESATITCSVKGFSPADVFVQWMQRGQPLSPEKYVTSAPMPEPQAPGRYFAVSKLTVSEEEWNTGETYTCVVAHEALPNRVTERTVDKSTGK", "assay": "co-transfection in 293F cells, Capture Select IgM immunoprecipitation, non-reducing SDS-PAGE (FIG. 6, lane 2)", "description": "(§1) IgM was made by co-transfection of several different expression vectors at equal molar ratios into mammalian cells, such as 293F cells (Invitrogen). 10 μg of mixed DNA for expression vectors were mixed with 20 μl of 293Fectin (Invitrogen) for 30 minutes at room temperature in 2 ml of Opti-MEM (Invitrogen) and then added to 10⁷ 293F cells. Transfections with 293F cells were incubated for 72 hours post-transfection before harvesting the supernatant.\n(§2) b. Protein purification by immunoprecipitation. [0243] i. Capture Select IgM (Catalog 2890.05, BAC, Thermo Fisher) [0244] Transfected supernatant were harvested by centrifugation at 2,000 G for 10 minutes. IgM proteins were purified by immunoprecipitation with affinity Capture Select IgM affinity matrix. 100 μl of Capture Select IgM slurry were added to 15 ml of harvested supernatant. […] The affinity matrixes were further washed with 60 μl of PBS and the supernatant were pooled for analysis by gel electrophoresis.\n(§3) c. Gel electrophoresis [0246] i. Non-reducing SDS Page [0247] Non-reducing SDS PAGE was used to separate various mutant IgM proteins of different molecular weights. Novex 4-12% Bis-Tris Gel (Life Technologies) was used with Novex MES SDS Running Buffer (Life Technologies). [0248] II."}, "[2]": {"target": "T2, Fc2a (human µ chain CH2 to CH4 region with C291S, T350Y, T354E and I397E mutations and tail piece deletion) (human, UniProt P01871 112-433)", "T2 chain": "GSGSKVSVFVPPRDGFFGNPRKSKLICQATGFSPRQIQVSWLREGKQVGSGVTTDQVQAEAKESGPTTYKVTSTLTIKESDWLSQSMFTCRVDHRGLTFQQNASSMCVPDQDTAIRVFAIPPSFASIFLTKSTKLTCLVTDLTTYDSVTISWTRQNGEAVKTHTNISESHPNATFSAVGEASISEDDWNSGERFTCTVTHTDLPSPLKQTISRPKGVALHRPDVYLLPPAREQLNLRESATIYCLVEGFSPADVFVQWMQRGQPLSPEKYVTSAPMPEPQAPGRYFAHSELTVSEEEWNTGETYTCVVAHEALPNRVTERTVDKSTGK", "assay": "co-transfection in 293F cells, Capture Select IgM immunoprecipitation, non-reducing SDS-PAGE (FIG. 6, lane 3)", "description": "as §1, §2, §3"}, "[3]": {"target": "the molecule itself", "assay": "self-association (Fc homodimer); co-transfection of wild-type Okt:Fc in 293F cells, Capture Select IgM immunoprecipitation, non-reducing SDS-PAGE (FIG. 8, lane 1)"}}, "data": [{"binder": "B1", "values": [{"measurement": "binding result", "setting": "[1]", "value": "binds"}]}, {"binder": "B2", "values": [{"measurement": "binding result", "setting": "[2]", "value": "binds"}]}, {"binder": "B3", "values": [{"measurement": "binding result", "setting": "[3]", "value": "binds"}]}]}
